# Experimental data from patent US20250188139A1 (published 2025).
# Where a chain is given by its changes, count along the chain named.
# T1: Human VEGFR-3 extracellular domain (amino acids 25-329), AviTag, hexahistidine tag, biotinylated (human, UniProt P35916 25-329, biotinylated with BirA ligase (AviTag))
# T1 chain (part 1 of 2): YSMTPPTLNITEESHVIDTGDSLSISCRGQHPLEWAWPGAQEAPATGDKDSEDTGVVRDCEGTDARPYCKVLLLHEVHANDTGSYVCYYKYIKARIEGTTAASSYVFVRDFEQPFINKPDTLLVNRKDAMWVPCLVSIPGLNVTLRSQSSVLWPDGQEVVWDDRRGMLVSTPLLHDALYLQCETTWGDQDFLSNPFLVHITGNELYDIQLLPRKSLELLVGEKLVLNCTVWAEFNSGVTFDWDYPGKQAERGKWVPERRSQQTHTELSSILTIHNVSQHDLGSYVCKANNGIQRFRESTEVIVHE
# T1 chain (part 2 of 2): HHHHHH
# B1: WT (ligand)
# chain: NTEILKSIDNEWRKTQCMPREVCIDVGKEFGAATNTFFKPPCVSVYRCGGCCNSEGLQCMNTSTGYLSKTLFEITVPLSQGPKPVTISFANHTSCRCMSKL
# B2: Clone 15 (protein)
# chain: B1 chain with C23A, A32V, N53I, G65S, L78I
# B3: WT VEGFC (protein)
# chain: B1 chain with A32V, G65S
# B4: Clone 7 (protein)
# chain: B1 chain with C23A, A32V, N53Q, G65S
# B5: Clone 19 (protein)
# chain: B1 chain with C23A, A32V, S54G, G65S
# B6: Clone 39 (protein)
# chain: B1 chain with C23A, A32V, N53I, S54R, G65S
# B7: Clone 8 (protein)
# chain: B1 chain with C23A, A32V, N53Q, S54G, G65S
# B8: Clone 9 (protein)
# chain: B1 chain with C23A, A32V, N53Q, G65S, L78I
# B9: Clone 16 (protein)
# chain: B1 chain with C23A, A32V, N53I, S54G, G65S, L78I
# B10: Clone 14 (protein)
# chain: B1 chain with C23A, A32V, N53I, S54G, G65S
# B11: Clone 10 (protein)
# chain: B1 chain with C23A, A32V, N53Q, S54G, G65S, L78I
# B12: Clone 13 (protein)
# chain: B1 chain with C23A, A32V, N53I, G65S
# B13: Clone 21 (protein)
# chain: B1 chain with C23A, A32V, S54G, G65S, L78I
# B14: Clone 31 (protein)
# chain: B1 chain with C23A, A32V, N53H, G65S
# Molecular target: VEGFR3
# Experiment: SPR
row,Kd,Binder
1,0.0107 nM,B1

# Molecular target: VEGFR2
# Experiment: SPR
row,Kd,Binder
1,0.227 nM,B1

# Molecular target: T1, Human VEGFR-3 extracellular domain …
# Experiment: yeast display flow cytometry binding
row,EC50,Binder
1,21.5 nM,B2
2,34.8 nM,B3
3,71 nM,B4
4,51.3 nM,B5
5,104 nM,B6
6,124 nM,B7
7,65.7 nM,B8
8,36.8 nM,B9
9,74.5 nM,B10
10,65.5 nM,B11
11,32.3 nM,B12
12,44.8 nM,B13
13,94.5 nM,B14
